Assay results as given in patent US20050182242A1, “Global analysis of protein activities using proteome chips” (priority 2001, published 2005).

How the values were obtained:
PI(4)P liposomes = assay: Yeast proteome chip probed with PI(4)P liposomes; conditions: liposome binding signal on yeast proteome chip, Cy3-streptavidin detection
[1] = tested on: phospholipids (phosphatidylinositols vs phosphatidylcholine); assay: Proteome chip lipid-binding screen, overall analysis of six liposomes (PI/PC specificity); conditions: compared with phosphatidylcholine
Summary of the method: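 Yeast proteome chips probed with PC liposomes carrying 1% biotin DHPE, plus 5% PI(3)P, PI(4)P, PI(3,4)P2, PI(4,5)P2 or PI(3,4,5)P3, 1 h at RT. Binding detected with Cy3/Cy5-streptavidin; PI signals normalized to PC signals, giving PI/PC ratios (>1.3 taken as PI-preferential).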

B1: MY04: yeast class V myosin heavy chain, GST-HisX6 fusion (protein, UniProt P32492 1-1471, looked up)
Myosin-4: MSFEVGTKCWYPHKEQGWIGGEVTKNDFFEGTFHLELKLEDGETVSIETNSFENDDDHPTLPVLRNPPILESTDDLTTLSYLNEPAVLHAIKKRYMNGQIYTYSGIVLIAANPFDKVDHLYSREMIQNYSSKRKDELEPHLFAIAEEAYRFMVHEKANQTVVVSGESGAGKTVSAKYIMRYFASVQESNNREGEVEMSQIESQILATNPIMEAFGNAKTTRNDNSSRFGKYLQILFDENTTIRGSKIRTYLLEKSRLVYQPETERNYHIFYQILEGLPEPVKQELHLSSPKDYHYTNQGGQPNIAGIDEAREYKITTDALSLVGINHETQLGIFKILAGLLHIGNIEMKMTRNDASLSSEEQNLQIACELLGIDPFNFAKWIVKKQIVTRSEKIVTNLNYNQALIARDSVAKFIYSTLFDWLVDNINKTLYDPELDQQDHVFSFIGILDIYGFEHFEKNSFEQFCINYANEKLQQEFNQHVFKLEQEEYVKEEIEWSFIEFSDNQPCIDLIENKLGILSLLDEESRLPSGSDESWASKLYSAFNKPPSNEVFSKPRFGQTKFIVSHYAVDVEYEVEGFIEKNRDSVSLGHLDVFKATTNPIFKQILDNRELRSDDAPEEQNTEKKIMIPARLSQKKPTLGSMFKKSLGELMAIINSTNVHYIRCIKPNSEKKPWEFDNLMVLSQLRACGVLETIRISCAGFPSRWTFDEFVQRYFLLTDYSLWSGILYNPDLPKEAIVNFCQSILDATISDSAKYQIGNTKIFFKAGMLAFLEKLRTNKMNEICIIIQKKIRARYYRLQYLQTMESIKKCQSQIRSLLVRTRVDHELKTRAAILLQTNIRALWKREYYRAAIGQIIKLQCTCKRKLILDSVNRKFMLMAAVIIQSYIRSYGHKTDYRTLKRSSILVQSAMRMQLARRRYIVLQKEVEERNIRASYGIGLLEEAIEFKNSFILNLEMLNDSYTRLTQLLQGDLSNIPSKQRQEYETIVNGYNDKISKLKTLQVEIMNTLNKKNALKERKKKQSSLIQSHMQSLAAIKGNKPSRLSDEVKSMKQELAFIENVIAQDFTTTYSANKNDKVKGLGIAGQQVKPKLVNVIRRESGNPDLLELLMDLNCYTLEVTEGYLKKVNVTEVNGDNVLGPIHVITTVVSSLVRNGLLIQSSKFISKVLLTVESIVMSLPKDETMLGGIFWLSNLSRLPAFAANQKTLYEANGGDEKDKLTLIYLNDLENETLKVFDKIYSTWLVKFMKHASAHIEIFDMVLNEKLFKNSGDEKFAKLFTFLNEFDAVLCKFQVVDSMHTKIFNDTLKYLNVMLFNDLITKCPALNWKYGYEVDRNIERLVSWFEPRIEDVRPNLIQIIQAVKILQLKISNLNEFKLLFDFWYALNPAQIQAILLKYKPANKGEAGVPNEILNYLANVIKRENLSLPGKMEIMLSAQFDSAKNHLRYDTSAITQNSNTEGLATVSKIIKLDRK
modifications: GST-HisX6 tag
notes: yeast class V myosin heavy chain, GST-HisX6 fusion
PI(4)P liposomes
  PI(4)P: 36.58
[1]
  preferential binding of particular phosphatidylinositol lipids: preferentially binds PI(4,5)P2

B2: CMK1: yeast calcium/calmodulin-dependent serine/threonine protein kinase, GST-HisX6 fusion (protein)
chain: MDDKVSEKESSPKQTEEDSEGKMAHVQPASYVNKKKYVFGKTLGAGTFGVVRQAKNTETGEDVAVKILIKKALKGNKVQLEALYDELDILQRLHHPNIVAFKDWFESKDKFYIITQLAKGGELFDRILKKGKFTEEDAVRILVEILSAVKYMHSQNIVHRDLKPENLLYIDKSDESPLVVADFGIAKRLKSDEELLYKPAGSLGYVAPEVLTQDGHGKPCDIWSIGVITYTLLCGYSAFRAERVQDFLDECTTGEYPVKFHRPYWDSVSNKAKQFILKALNLDPSKRPTAAELLEDPWIICTELKTHNLLPGLKEGLDARQKFRNSVERVRLNMKIQKLRDLYLEQTESDSDFDEGSQANGSVPPLKATDTSQLSKKLSEEEQSKLKSELTSKAFAQLVNTVLAEKEKFLNINRVCSSDSDLPGSDIKSLDEAKEKPEGKDTKTEE
modifications: left off: a dimerising Fc or GST
notes: yeast calcium/calmodulin-dependent serine/threonine protein kinase, GST-HisX6 fusion
PI(4)P liposomes
  PI(4)P: 105.39
